# Measurements reported in patent US20240400635A1 (Novo Nordisk, published 2024).
# Positions count from the first letter of the chain named.
# B1: S{Beta-26}-[2-[2-[[2-[2-[2-[[2-[2-[2-[[(4S)-4-carboxy-4-(17-carboxyheptadecanoyl-amino)butanoyl]amino]ethoxy]ethoxy]acetyl]amino]ethoxy]ethoxy]acetyl]amino]-eth … (ligand)
# chain: HGEGTFTSDVSSYLEEQAACEFIAWLVKGGGGAQPGAQPGAQPGAQPAHPIPDSSPLLQFGGQVRQRYLYTDDAQQTEAHLEIREDGTVGGAADQSPESLLQLKALKPGVIQILGVKTSRFLCQRPDGALYGSLHFDPEACSFRELLLEDGYNVYQSEAHGLPLHLPGQKSPHRDPAPRGPARFLPLPGLPPALPEPPGILAPQPPDVGSSDPLSLVGPSQGRSPSYCS
# modifications: Cys26 of the GLP-1 part (GLP-1(7-37) numbering; residue 20 of the chain) and Cys180 of the FGF21 part (FGF21(1-181) numbering; residue 228 of the chain) each S-alkylated with substituent Chem. 7
# B2: S{Beta-26}-[2-[2-[[2-[2-[2-[[2-[2-[2-[[(4S)-4-carboxy-4-(17-carboxyheptadecanoyl-amino)butanoyl]amino]ethoxy]ethoxy]acetyl]amino]ethoxy]ethoxy]acetyl]amino]-eth … (ligand)
# chain: B1 chain with P219G, C228A
# modifications: Cys26 of the GLP-1 part (GLP-1(7-37) numbering; residue 20 of the chain) S-alkylated with substituent Chem. 7
# B3: S{Beta-27}-[2-[2-[[2-[2-[2-[[2-[2-[2-[[(4S)-4-carboxy-4-(17-carboxyheptadecanoyl-amino)butanoyl]amino]ethoxy]ethoxy]acetyl]amino]ethoxy]ethoxy]acetyl]amino]-eth … (ligand)
# chain: HGEGTFTSDVSSYLEEQAAKCFIAWLVKGGGGAQPGAQPGAQPGAQPGAQPGAQPGAQPGAQPGAQPGAQPGAQPGAQPGAQPGAQPGAQPGAQPAHPIPDSSPLLQFGGQVRQRYLYTDDAQQTEAHLEIREDGTVGGAADQSPESLLQLKALKPGVIQILGVKTSRFLCQRPDGALYGSLHFDPEACSFRELLLEDGYNVYQSEAHGLPLHLPGQKSPHRDPAPRGPARFLPLPGLPPALPEPPGILAPQPPDVGSSDPLSLVGGSQGRSPSYES
# modifications: Cys27 of the GLP-1 part (GLP-1(7-37) numbering; residue 21 of the chain) S-alkylated with substituent Chem. 7
# B4: S{Beta-36}-[2-[2-[[2-[2-[2-[[2-[2-[2-[[(4S)-4-carboxy-4-(17-carboxyheptadecanoyl-amino)butanoyl]amino]ethoxy]ethoxy]acetyl]amino]ethoxy]ethoxy]acetyl]amino]-eth … (ligand)
# chain: B1 chain with C20R, G30C, P219G, C228E
# modifications: Cys36 of the GLP-1 part (GLP-1(7-37) numbering; residue 30 of the chain) S-alkylated with substituent Chem. 7
# B5: S{Beta-27}-[2-[2-[[2-[2-[2-[[2-[2-[2-[[(4S)-4-carboxy-4-(17-carboxyheptadecanoyl-amino)butanoyl]amino]ethoxy]ethoxy]acetyl]amino]ethoxy]ethoxy]acetyl]amino]-eth … (ligand)
# chain: B1 chain with C20K, E21C
# modifications: Cys27 of the GLP-1 part (GLP-1(7-37) numbering; residue 21 of the chain) and Cys180 of the FGF21 part (FGF21(1-181) numbering; residue 228 of the chain) each S-alkylated with substituent Chem. 7
# B6: S{Beta-27}-[2-[2-[[2-[2-[2-[[2-[2-[2-[[(4S)-4-carboxy-4-(17-carboxyheptadecanoyl-amino)butanoyl]amino]ethoxy]ethoxy]acetyl]amino]ethoxy]ethoxy]acetyl]amino]-eth … (ligand)
# chain: B1 chain with C20R, E21C
# modifications: Cys27 of the GLP-1 part (GLP-1(7-37) numbering; residue 21 of the chain) and Cys180 of the FGF21 part (FGF21(1-181) numbering; residue 228 of the chain) each S-alkylated with substituent Chem. 7
# B7: S{Beta-27}-[2-[2-[[2-[2-[2-[[2-[2-[2-[[(4S)-4-carboxy-4-(17-carboxyheptadecanoyl-amino)butanoyl]amino]ethoxy]ethoxy]acetyl]amino]ethoxy]ethoxy]acetyl]amino]-eth … (ligand)
# chain: B1 chain with C20K, E21C, P219G, C228A
# modifications: Cys27 of the GLP-1 part (GLP-1(7-37) numbering; residue 21 of the chain) S-alkylated with substituent Chem. 7
# B8: S{Beta-27}-[2-[2-[[2-[2-[2-[[2-[2-[2-[[(4S)-4-carboxy-4-(17-carboxyheptadecanoyl-amino)butanoyl]amino]ethoxy]ethoxy]acetyl]amino]ethoxy]ethoxy]acetyl]amino]-eth … (ligand)
# chain: HGEGTFTSDVSSYLEEQAAKCFIAWLVKGGGGAQPGAQPGAQPGAQPGAQPGAQPGAQPGAQPAHPIPDSSPLLQFGGQVRQRYLYTDDAQQTEAHLEIREDGTVGGAADQSPESLLQLKALKPGVIQILGVKTSRFLCQRPDGALYGSLHFDPEACSFRELLLEDGYNVYQSEAHGLPLHLPGQKSPHRDPAPRGPARFLPLPGLPPALPEPPGILAPQPPDVGSSDPLSLVGGSQGRSPSYAS
# modifications: Cys27 of the GLP-1 part (GLP-1(7-37) numbering; residue 21 of the chain) S-alkylated with substituent Chem. 7
# B9: [8G, 22E, 26R, 36G]GLP-1(7-37)-(GAQP)x2, … (ligand)
# chain: HGEGTFTSDVSSYLEEQAAREFIAWLVKGGGGAQPGAQPCGAQPGAQPAHPIPDSSPLLQFGGQVRQRYLYTDDAQQTEAHLEIREDGTVGGAADQSPESLLQLKALKPGVIQILGVKTSRFLCQRPDGALYGSLHFDPEACSFRELLLEDGYNVYQSEAHGLPLHLPGQKSPHRDPAPRGPARFLPLPGLPPALPEPPGILAPQPPDVGSSDPLSLVGPSQGRSPSYCSHGEGTFTSDVSSYLEEQAAREFIAWLVKGGGGAQPGAQPCGAQPGAQPAHPIPDSSPLLQFGGQVRQRYLYTDDAQQTEAHLEIREDGTVGGAADQSPESLLQLKALKPGVIQILGVKTSRFLCQRPDGALYGSLHFDPEACSFRELLLEDGYNVYQSEAHGLPLHLPGQKSPHRDPAPRGPARFLPLPGLPPALPEPPGILAPQPPDVGSSDPLSLVGPSQGRSPSYCS
# modifications: Cys of the spacer (residue 40 of the chain) and Cys180 of the FGF21 part (FGF21(1-181) numbering; residue 229 of the chain) each S-alkylated with substituent Chem. 7
# B10: [8G, 22E, 36G]GLP-1(7-37)-(GAQP)x2, … (ligand)
# chain: HGEGTFTSDVSSYLEEQAAKEFIAWLVKGGGGAQPGAQPCGAQPGAQPAHPIPDSSPLLQFGGQVRQRYLYTDDAQQTEAHLEIREDGTVGGAADQSPESLLQLKALKPGVIQILGVKTSRFLCQRPDGALYGSLHFDPEACSFRELLLEDGYNVYQSEAHGLPLHLPGQKSPHRDPAPRGPARFLPLPGLPPALPEPPGILAPQPPDVGSSDPLSLVGGSQGRSPSYAS
# modifications: Cys of the spacer (residue 40 of the chain) S-alkylated with substituent Chem. 7
# B11: S{Beta-27}-[2-[2-[[2-[2-[2-[[2-[2-[2-[[(4S)-4-carboxy-4-(17-carboxyheptadecanoyl-amino)butanoyl]amino]ethoxy]ethoxy]acetyl]amino]ethoxy]ethoxy]acetyl]amino]-eth … (ligand)
# chain: B1 chain with C20R, E21C, P219G, C228E
# modifications: Cys27 of the GLP-1 part (GLP-1(7-37) numbering; residue 21 of the chain) S-alkylated with substituent Chem. 7
# B12: [8G, 22E, 26R, 36G]GLP-1(7-37)-(GAQP)x2, … (ligand)
# chain: HGEGTFTSDVSSYLEEQAAREFIAWLVKGGGGAQPGAQPCGAQPAHPIPDSSPLLQFGGQVRQRYLYTDDAQQTEAHLEIREDGTVGGAADQSPESLLQLKALKPGVIQILGVKTSRFLCQRPDGALYGSLHFDPEACSFRELLLEDGYNVYQSEAHGLPLHLPGQKSPHRDPAPRGPARFLPLPGLPPALPEPPGILAPQPPDVGSSDPLSLVGGSQGRSPSYAS
# modifications: Cys of the spacer (residue 40 of the chain) S-alkylated with substituent Chem. 7
# B13: {S27-[(28S)-(28,46-Dicarboxy-2,7,16,25,30-pentaoxo-9,12,18,21-tetraoxa-3,6,15,24,29-pentaazahexatetracontan-1-yl)]-[Gly8,36,Glu22,Cys27]-GLP-1(human)-(7-37)-pep … (ligand)
# chain: HGEGTFTSDVSSYLEEQAAKCFIAWLVKGGGGAQPGAQPGAQPGAQPGAQPGAQPGAQPGAQPGAQPGAQPGAQPGAQPGAQPGAQPGAQPGAQPGAQPGAQPGAQPGAQPGAQPGAQPGAQPGAQPGAQPGAQPGAQPGAQPGAQPGAQPGAQPGAQPAHPIPDSSPLLQFGGQVRQRYLYTDDAQQTEAHLEIREDGTVGGAADQSPESLLQLKALKPGVIQILGVKTSRFLCQRPDGALYGSLHFDPEACSFRELLLEDGYNVYQSEAHGLPLHLPGQKSPHRDPAPRGPARFLPLPGLPPALPEPPGILAPQPPDVGSSDPLSLVGGSQGRSPSYES
# modifications: Cys27 of the GLP-1 part (GLP-1(7-37) numbering; residue 21 of the chain) S-alkylated with (28S)-(28,46-Dicarboxy-2,7,16,25,30-pentaoxo-9,12,18,21-tetraoxa-3,6,15,24,29-pentaazahexatetracontan-1-yl) (substituent Chem. 7)
# B14: S{Beta-27}-[2-[2-[[2-[2-[2-[[2-[2-[2-[[(4S)-4-carboxy-4-(17-carboxyheptadecanoyl-amino)butanoyl]amino]ethoxy]ethoxy]acetyl]amino]ethoxy]ethoxy]acetyl]amino]-eth … (ligand)
# chain: B1 chain with C20K, E21C, P219G, C228E
# modifications: Cys27 of the GLP-1 part (GLP-1(7-37) numbering; residue 21 of the chain) S-alkylated with substituent Chem. 7
# B15: S{Beta-27}-[2-[2-[[2-[2-[2-[[2-[2-[2-[[(4S)-4-carboxy-4-(17-carboxyheptadecanoyl-amino)butanoyl]amino]ethoxy]ethoxy]acetyl]amino]ethoxy]ethoxy]acetyl]amino]-eth … (ligand)
# chain: B8 chain with A244E
# modifications: Cys27 of the GLP-1 part (GLP-1(7-37) numbering; residue 21 of the chain) S-alkylated with substituent Chem. 7
# Target: T1, human GLP-1 receptor (human, UniProt P43220 24-463)
# Assay: cell-based or functional assay
Binder,"GLP-1R potency loss against Chem. 24, absence of HSA [fold]","GLP-1R potency loss against Chem. 24, presence of HSA [fold]"
B1,40,26
B2,> 10,–

# Target: T1, human GLP-1 receptor
# Assay: cell-based or functional assay
# Remark: another data set of the same source
Binder,GLP-1 receptor potency [EC50] pM 0% HSA [pM],GLP-1 receptor potency [EC50] pM 1% HSA [pM]
B3,9.5,103
B4,54.6,394
B5,18,391
B1,224,4410
B6,11.4,389
B7,16.9,75.4
B8,15.7,106
B9,29.5,450
B10,92.3,394
B11,17.2,104
B12,28.2,222
B2,67.4,397
B13,9.8,203
B14,13.8,78.7
B15,9.8,66.6

# Target: FGF receptor/BKL complex (human, UniProt Q86Z14 1-1044)
# Sequence (Q86Z14 whole entry, one chain of several): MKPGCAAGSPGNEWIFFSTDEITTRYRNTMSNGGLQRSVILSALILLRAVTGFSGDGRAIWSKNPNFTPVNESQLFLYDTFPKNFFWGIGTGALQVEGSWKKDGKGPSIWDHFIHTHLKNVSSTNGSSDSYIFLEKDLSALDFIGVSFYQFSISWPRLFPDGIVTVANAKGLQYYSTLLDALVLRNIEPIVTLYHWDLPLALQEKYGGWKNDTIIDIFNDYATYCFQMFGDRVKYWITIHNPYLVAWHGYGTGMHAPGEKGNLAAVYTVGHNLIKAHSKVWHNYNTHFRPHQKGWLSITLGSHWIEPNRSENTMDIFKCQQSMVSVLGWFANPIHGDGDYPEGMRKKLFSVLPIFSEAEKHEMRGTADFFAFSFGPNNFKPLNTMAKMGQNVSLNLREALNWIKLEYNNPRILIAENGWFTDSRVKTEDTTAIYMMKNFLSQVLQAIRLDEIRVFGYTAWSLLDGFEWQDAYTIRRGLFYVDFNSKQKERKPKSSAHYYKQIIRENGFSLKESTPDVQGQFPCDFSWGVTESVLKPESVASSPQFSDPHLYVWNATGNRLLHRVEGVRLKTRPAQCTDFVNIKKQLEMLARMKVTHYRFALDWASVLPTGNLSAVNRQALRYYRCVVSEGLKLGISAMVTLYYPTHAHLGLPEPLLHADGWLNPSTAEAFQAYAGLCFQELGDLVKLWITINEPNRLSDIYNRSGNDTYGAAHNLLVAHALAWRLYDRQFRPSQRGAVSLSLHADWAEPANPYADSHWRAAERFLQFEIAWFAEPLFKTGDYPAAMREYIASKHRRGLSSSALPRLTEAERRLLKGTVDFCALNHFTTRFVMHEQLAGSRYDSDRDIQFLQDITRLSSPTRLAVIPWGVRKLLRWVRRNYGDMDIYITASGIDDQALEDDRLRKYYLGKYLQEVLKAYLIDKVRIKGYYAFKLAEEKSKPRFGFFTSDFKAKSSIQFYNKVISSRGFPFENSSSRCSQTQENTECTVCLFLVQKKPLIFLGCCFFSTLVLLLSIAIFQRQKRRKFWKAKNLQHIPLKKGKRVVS
# Assay: cell-based or functional assay
Binder,FGF1 receptor potency [EC50] nM 0.1% HSA [nM],FGF21 receptor potency [EC50] nM 0% HSA [nM]
B3,1.14,0.47
B4,0.73,0.41
B5,7.57,0.2
B1,8.97,0.24
B6,8,1.2
B7,0.38,0.13
B8,0.45,0.24
B9,18,0.22
B10,1.36,0.19
B11,0.43,0.17
B12,0.57,0.32
B2,0.51,0.43
B13,1.42,0.67
B14,0.64,0.45
B15,0.87,0.41
